# Data taken from patent US20160228506A1, “Compositions and Formulations for Prevention and Reduction of Tumorigenesis, Cancer Cell Proliferation and Invasion, and Methods of Production and Use Thereof in Cancer Treatment” (PRONUTRIA, INC., priority 2013, published 2016).
# B1: SEQID-00354: nutritive polypeptide (protein)
# chain: MSLSNKLTLDKLDVKGKRVVMRVDFNVPMKNNQITNNQRIKAAVPSIKYCLDSGAKSVVLMSHLGRPDGVPMPDKYSLQPVAVELKSLLGKDVLFLKDCVGPEVEKACADPAAGSVILLENLRFHVEEEGKGKDASGNKVKAEPTKIEAFRASLSKLGDVYVNDAFGTAHRAHSSMVGVNLPKKAGGFLMKKELNYFAKALESPERPFLAILGGAKVADKIQLISNMLDKVNEMIIGGGMAFTFLKVLNNMEIGTSLFDEEGSKIVKDLMSKADKNGVKITLPVDFVTADKFDENAKTGQATVASGIPVGWMGLDCGPESSKKYAEAVARAKQIVWNGPVGVFEWEAFARGTKALMDEVVKATSRGCITIIGGGDTATCCAKWNTEDKVSHVSTGGGASLELLEGKVLPGVDALSSV
# modifications: Ovis aries
# B2: SEQID-00359: nutritive polypeptide naturally produced in Sheep, recombinantly expressed in E. coli (protein)
# chain: MLELGSQRNRAKNNHIGDLMSQSFESLGISEQRARHLETLGFTEPTPVQIQAIPEMLSGRDVVGMAQTGTGKTAAFSLPILEQIDVHAAGIQALVLTPTRELAMQVKEAIRTFSDDNALYVLTVYGGQSIDRQIQRLRRGVQVVVGTPGRILDLLNRGELKLDLLRWLVLDEADEMLSMGFIQDVEKILESADSEHRQTAFFSATMDASISKLVRRHLKSPVTVKVETPKATPKRIEQSVYMVPRGWSKARALEPILELEDPESAIIFVRTKQSAADLTNQLQAAGHSVDEYHGNLNQSQRERLLMRLRRRQVRWIVATDIAARGLDVDHLTHVINYDLPDQVDSYVHRIGRTGRAGREGKAITLIQPIDRRKLRNIERHLRQTLSIQSIPKRAEIEARYIDRLKDRVRDALAGERMASFLPIVSQLSEEYDPHAIAAAALQLAYDQTRPASIGRDDYEDDDDAVSNKPKLIKRRRPASVSNNS
# modifications: Arthrospira platensis NIES-39
# B3: SEQID-00363 (E. coli): SEQID-00363 expressed recombinantly in E. coli (protein)
# chain: ATLDSWLSNEATVARTAILNNIGADGAWVSGADSGIVVASPSTDNPDYFYTWTRDSGLVLKTLVDLFRNGDTSLLSTIENYISAQAIVQGISNPSGDLSSGAGLGEPKFNVDETAYTGSWGRPQRDGPALRATAMIGFGQWLLDNGYTSTATDIVWPLVRNDLSYVAQYWNQTGYDLWEEVNGSSFFTIAVQHRALVEGSAFATAVGSSCSWCDSQAPEILCYLQSFWTGSFILANFDSSRSGKDANTLLGSIHTFDPEAACDDSTFQPCSPRALANHKEVVDSFRSIYTLNDGLSDSEAVAVGRYPEDTYYNGNPWFLCTLAAAEQLYDALYQWDKQGSLEVTDVSLDFFKALYSDAATGTYSSSSSTYSSIVDAVKTFADGFVSIVETHAASNGSMSEQYDKSDGEQLSARDLTWSYAALLTANNRRNSVVPASWGETSASSVPGTCAATSAIGTYSSVTVTSWPSIVATGGTTTTATPTGSGSVTSTSKTTATASKTSTSTSSTSCTTPTAVAVTFDLTATTTYGENIYLVGSISQLGDWETSDGIALSADKYTSSDPLWYVTVTLPAGESFEYKFIRIESDDSVEWESDPNREYTVPQACGTSTATVTDTWR
# modifications: Aspergillus niger
# B4: SEQID-00343: nutritive polypeptide (protein)
# chain: MATLIAPSHHSRVEDAEALRNAFKGWGADDKAIIAILGHRNVHQRQEIRKAYEEIYQEDLIKRLESEISGDFERAMYRWMLQPADRDAVLVNVAIKNGTKDYHVIAEIACVLSAEELLAVRRAYHRRYKCSLEEDVAANTTGNLRQLLVGLVTSYRYEGDEINVKFSQTEANVLHESVKEKKGNSEEVIRILTTRSKTQLVATFNRYRDEHGISISKKLLDQTSDDFHKVLHTAIRCINDHKKYYEKVLRNAVKKFGTDEDGLSRVIVTRAEKDLKDIKELYYKRNSVHLEDEVSKETSGDYKKFLLTLLGK
# modifications: Glycine max
# B5: SEQID-00345: nutritive polypeptide (protein)
# chain: MNTLDLQNQRILVTGGAGFLGKQVIDQLLKAGAKSENISVPRSHNCDLRNLEACQQAAKGQDIIIHLAAHVGGIGLNQVKPAELFYDNLMMGTQLIHSAYQAGVKKFVCVGTICAYPKFTPVPFQEDDLWNGYPEETNAPYGIAKKALLVQLQAYRQQYGFNGIYLLPVNLYGPEDNFNPKSSHVIPALVRKVYEAQQRGDKQLPVWGDGSPSREFLYSTDAARGIVMATQHYDEPDPVNLGTNSEVTIRDLVELICELMEFQGEIVWETDKPNGQPRRCLDTNRAKERFGFVAEVEFRQGLKNTIDWYRQNPDL
# modifications: Arthrospira platensis NIES-39
# B6: SEQID-00356: nutritive polypeptide (protein)
# chain: MATAAEKLSALKSAVAGLNEISENEKNGFISLVGRYLSGEAQHVEWSKIQTPTDEVVVPYDTLAPTPEGSSEVKNLLDKLVVLKLNGGLGTTMGCTGPKSVIEVRDGLTFLDLIVIQIENLNSKYGSNVPLLLMNSFNTHDDTQKIVEKYQNSNIEIHTFNQSQYPRLVVEDFLPLPSKGHTDKDGWYPPGHGDVFPSLLNSGKLDALLSQGKEYVFVANSDNLGAIVDLKILNHLIQNKNEYCMEVTPKTLADVKGGTLISYEGRVQLLEIAQVPDEHVNEFKSIEKFKIFNTNNLWVNLNAVKRLVEADALKMEIIPNPKEVDGIKVLQLETAAGAAIRFFDKAIGINVPRSRFLPVKATSDLLLVQSDLYTLEDGFVIRNKARENPENPSIELGPEFKKVSNFLGRFKSIPSIVELDSLKVAGDVWFGAGVILKGKVSIVSKPGVKLEVPDGVAIVDKEINGPEDL
# modifications: Glycine max
# B7: SEQID-00407 (BS): α-amylase in Bacillus subtilis; Wild-type of Tables E37A and E38E (protein, listed as Bacillus subtilis)
# chain: ETANKSNELTAPSIKSGTILHAWNWSFNTLKHNMKDIHDAGYTAIQTSPINQVKEGNQGDKSMSNWYWLYQPTSYQIGNRYLGTEQEFKEMCAAAEEYGIKVIVDAVINHTTSDYAAISNEVKSIPNWTHGNTQIKNWSDRWDVTQNSLLGLYDWNTQNTQVQSYLKRFLDRALNDGADGFRFDAAKHIELPDDGSYGSQFWPNITNTSAEFQYGEILQDSASRDAAYANYMDVTASNYGHSIRSALKNRNLGVSNISHYASDVSADKLVTWVESHDTYANDDEESTWMSDDDIRLGWAVIASRSGSTPLFFSRPEGGGNGVRFPGKSQIGDRGSALFEDQAITAVNRFHNVMAGQPEELSNPNGNNQIFMNQRGSHGVVLANAGSSSVSINTATKLPDGRYDNKAGAGSFQVNDGKLTGTINARSVAVLYPDDIAKAPHVFLENYKTGVTHSFNDQLTITLRADANTTKAVYQINNGPETAFKDGDQFTIGKGDPFGKTYTIMLKGTNSDGVTRTEKYSFVKRDPASAKTIGYQNPNHWSQVNAYIYKHDGSRVIELTGSWPGKPMTKNADGIYTLTLPADTDTTNAKVIFNNGSAQVPGQNQPGFDYVLNGLYNDSGLSGSLPH
# modifications: source: /note="strain 168"
# B8: SEQID-00346: nutritive polypeptide (protein)
# chain: MYYDADANLDLLAGKTIAIVGYGSQGHAHALNLKDSGMNVIVGLYPGSKSATKAKDAGLTVYPVDEAAKIADLIMILLPDEVQKTVYKNEIEPNLSEGKTLAFAHGFNIHFGQVVPPENVDVIMVAPKGPGHLVRRTYQEGQGVPCLFAVYQDASGQARDRAMAYAKGIGGTRGGILETTFREETETDLFGEQAVLCGGLSALIKAGFETLVEAGYQPELAYFECLHEVKLIVDLVVEGGLAQMRDSISNTAEYGDYTRGPRVITDATRAEMRKILKEIQTGQFAREFVLENQSGKAGFTAMRRQEAEHPIEEVGHDLRAMFSWLKKKA
# modifications: Arthrospira platensis NIES-39
# B9: SEQID-00357: nutritive polypeptide (protein)
# chain: MKPLNRRTKIVATIGPASNSREVLYQMIQAGMNVVRLNFSHGSHEQHTKTVALLKEISQELKTSITLLQDLQGPKIRVGQLPDGGIQLMAGEYITLVPIDQYESKPNTIAIDYLHLGEEAEIGAQVLLDDGLLELKVEEISGNQVKCKIIEGGTLKSRKGVNLPSLTLRLPSLTEKDQQDLEFGISLGVDWVSLSFVRNAEDVRVLKDFLASKNASQISVMAKIEKPQAIANLEEIISECNGLMVARGDLGVEMSPERVPLLQKQIIRLCNQKGIPVITATQMLDSMINNPRPTRAEASDVANAIIDGTDAVMLSGESAVGKYPIRAVEMLAKIAEDVEPEINFINYPPAFNDETHAISEAINTIDKIIDLHCIIAYTCSGYTGQLAAAERPKAPVVALTPNPKVYHRLNLVWGVKPLLLEQEVESFEELINQAQTYLLVRQMASPGDKILIIGGIPSGKAKGTNFIKIHTIG
# modifications: Arthrospira platensis NIES-39
# B10: SEQID-00001: nutritive polypeptide (protein, listed as Gallus gallus)
# chain: MGSIGAASMEFCFDVFKELKVHHANENIFYCPIAIMSALAMVYLGAKDSTRTQINKVVRFDKLPGFGDSIEAQCGTSVNVHSSLRDILNQITKPNDVYSFSLASRLYAEERYPILPEYLQCVKELYRGGLEPINFQTAADQARELINSWVESQTNGIIRNVLQPSSVDSQTAMVLVNAIVFKGLWEKAFKDEDTQAMPFRVTEQESKPVQMMYQIGLFRVASMASEKMKILELPFASGTMSMLVLLPDEVSGLEQLESIINFEKLTEWTSSNVMEERKIKVYLPRMKMEEKYNLTSVLMAMGITDVFSSSANLSGISSAESLKISQAVHAAHAEINEAGREVVGSAEAGVDAASVSEEFRADHPFLFCIKHIATNAVLFFGRCVSP
# B11: SEQID-00001 (HEK293): nutritive polypeptide (protein, listed as Gallus gallus)
# chain: B10 chain
# modifications: expressed in HEK293
# Assay: Intact half-life during simulated gastric fluid (SGF) digestion
# Settings: SGF pH 1.5, pepsin:polypeptide 1:20 w/w, 37° C.; intact protein
row,Molecule,SGF Half-life (t½)
1,B1,12 s
2,B2,12 s
3,B3,<600 s
4,B4,18 s
5,B5,48 s
6,B6,12 s
7,B7,12 s
8,B8,12 s
9,B9,12 s
10,B10,300 s
11,B11,516 s
